Measurements reported in PMC4803751, “Identification and Partial Characterization of a Novel UDP-N-Acetylenolpyruvoylglucosamine Reductase/UDP-N-Acetylmuramate:L-Alanine Ligase Fusion Enzyme from Verrucomicrobium spinosum DSM 4136^T” (Frontiers in Microbiology, 2016).

Experiments:
Assay in all cases: radiometric HPLC assay of UDP-MurNAc-L-Ala formation
Type in all cases: biochemical, Verrucomicrobium spinosum
[1] = substrate: CC(=O)N[C@H]1[C@@H](OP(=O)(O)OP(=O)(O)OC[C@H]2O[C@@H](n3ccc(=O)[nH]c3=O)[C@H](O)[C@@H]2O)O[C@H](CO)[C@@H](O)[C@@H]1O[C@H](C)C(=O)O; details: 5 mM ATP, 0.2 mM L-Ala, 10 mM MgCl2, 100 mM Tris-HCl pH 9.0, 10 mM ammonium sulfate, 0.5 mg/mL BSA, 37°C, UDP-MurNAc 25-500 μM, labelled compound, MurC activity
Text: (§1) radiometric HPLC assay of UDP-MurNAc-L-Ala formation on MurB/CVs (MurCVs activity)

[2] = substrate: Nc1ncnc2c1ncn2[C@@H]1O[C@H](COP(=O)(O)OP(=O)(O)OP(=O)(O)O)[C@@H](O)[C@H]1O; details: 1 mM UDP-MurNAc, 0.2 mM L-Ala, 10 mM MgCl2, 100 mM Tris-HCl pH 9.0, 10 mM ammonium sulfate, 0.5 mg/mL BSA, 37°C, ATP 0.2-5 mM, MurC activity
Text: as §1

[3] = substrate: C[C@H](N)C(=O)O; details: 5 mM ATP, 1 mM UDP-MurNAc, 10 mM MgCl2, 100 mM Tris-HCl pH 9.0, 10 mM ammonium sulfate, 0.5 mg/mL BSA, 37°C, L-Ala 10-400 μM, labelled compound, MurC activity
Text: as §1

B1: MurB/CVs (MurCVs activity) (Verrucomicrobium spinosum) (protein)
chain: MNHAVVSLLKEGRHKMHVHLIGVAGSGMSGLALLLMELGHKVSGSDKVTTLETERMEKKGLIFHCPQSEREVEGADMVIYSSAVKPGNPAYEAAYRHGIPLVRRAEALAAIMARKHGVVVAGTHGKTTTSSMAAHVLRVGGAKPSHYVGAEIPILGSNAHWDDAGELFVAEGDESDGTLVKFEPRHAIILNIEAEHLDYYEDLNEIKLVFRQLLEKTSGYSVYCAEDPVATELCEGRKNGISYGWSRDHNFSANILELRPAQTRYEVFQKGELLGEVLLGIPGRHNVLNSLAAISLAVSVGVPFSSIKQALESFRGARRRFEVKYSGSQYQIIDDYGHHPTEIKATLATAKALNPKRIVCLFQPHRYSRTQLLKQEFGGAFNDVDVLCVTDVYAASEKPLPGVSGETILEEVKLQAPGVECHSTPKLLNARDLIGSKLRPGDLLITLGAGNVHEVGSALARDLKVAEQLTTVLNREGGGTVKLYEPMANHTTIRLGGPAQYWIEPMTIQGFAEVVKALRAALIPIRVIGRGSNLLVRDGGIKGAVLHPSKGEFDEVRVDGNFIFAATGVRLKKIASAARAAGLGGFEWMEGIPGNLGGALRMNAGAMGLQTFDQVVSVRFLDGNGELREKMKHEIDHQYRSVPELDRHFAVSAVLQGRPAEAAEIDEKLAASHQKRRGSQPIGASAGCIFKNPGPVPAGKLVDELGLKGRSFGKAIVSDVHGNFILNSGGGTARDVQDLISDIKQVALQERGIMLETEVQIIGEEEPLPL
B1 gave a Km [1] of 90 ± 25 µM, a Km [2] of 470 ± 160 µM and a Km [3] of 25 ± 10 µM. For the same protein, the kcat [3] was 480 min⁻¹.
